In PMC3984902 (Oncogene, 2013):
Positions count from the first letter of the chain named. In names and notes the source's numbering stands.

Biological target: HSP90β (purified recombinant) (UniProt P08238 1-724)
Test: ITC

Chain of HSP90β (purified recombinant) (P08238 whole entry): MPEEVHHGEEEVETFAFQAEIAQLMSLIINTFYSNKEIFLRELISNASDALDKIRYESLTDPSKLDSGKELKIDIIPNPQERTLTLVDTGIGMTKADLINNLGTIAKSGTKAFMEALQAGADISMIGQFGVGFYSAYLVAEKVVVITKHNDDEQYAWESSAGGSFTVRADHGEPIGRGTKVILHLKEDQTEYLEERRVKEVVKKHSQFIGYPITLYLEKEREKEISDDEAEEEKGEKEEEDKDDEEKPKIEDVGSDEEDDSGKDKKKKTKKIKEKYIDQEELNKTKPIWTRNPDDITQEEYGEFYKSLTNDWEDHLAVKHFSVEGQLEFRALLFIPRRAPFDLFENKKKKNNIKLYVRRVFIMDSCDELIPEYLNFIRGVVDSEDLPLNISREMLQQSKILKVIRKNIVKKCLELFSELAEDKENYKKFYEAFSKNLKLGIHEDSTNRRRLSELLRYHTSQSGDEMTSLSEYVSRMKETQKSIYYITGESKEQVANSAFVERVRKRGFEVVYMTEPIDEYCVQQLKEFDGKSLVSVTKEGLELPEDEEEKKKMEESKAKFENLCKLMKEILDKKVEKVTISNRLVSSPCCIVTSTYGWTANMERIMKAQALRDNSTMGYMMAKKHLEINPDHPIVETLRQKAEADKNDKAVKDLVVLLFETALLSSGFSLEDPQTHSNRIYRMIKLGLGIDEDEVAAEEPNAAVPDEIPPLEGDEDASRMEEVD

B1: FLAG-tagged wildtype CDC37 (purified recombinant) (natural protein)
chain: MVDYSVWDHIEVSDDEDETHPNIDTASLFRWRHQARVERMEQFQKEKEELDRGCRECKRKVAECQRKLKELEVAEGGKAELERLQAEAQQLRKEERSWEQKLEEMRKKEKSMPWNVDTLSKDGFSKSMVNTKPEKTEEDSEEVREQKHKTFVEKYEKQIKHFGMLRRWDDSQKYLSDNVHLVCEETANYLVIWCIDLEVEEKCALMEQVAHQTIVMQFILELAKSLKVDPRACFRQFFTKIKTADRQYMEGFNDELEAFKERVRGRAKLRIEKAMKEYEEEERKKRLGPGGLDPVEVYESLPEELQKCFDVKDVQMLQDAISKMDPTDAKYHMQRCIDSGLWVPNSKASEAKEGEEAGPGDPLLEAVPKTGDEKDVSV
Kd: 2.26 µM

B2: FLAG-tagged CDC37 M164A (purified recombinant) (natural protein)
chain: B1 chain with M164A
Kd: 7.19 µM
